The source of these data is PMC2742502 (Journal of immunology (Baltimore, Md. : 1950), 2008).

The IC50 is the point on the concentration scale where inhibition reaches its midpoint. Low readings indicate inhibition by little substance, high ones a need for much substance.

For test [1], the target named is purified HLA A*0201 molecules (with human β2-microglobulin) (human (endogenous in EBV transformed cell lines) | human). In words: radioligand binding.
For the next test, the system named is PBMC. The class given is cell-based, human.
The subject of test [2] is T cells from healthy donors. To be noted: heteroclitic HLA-A0201-restricted epitope; cited from earlier work.

For the molecule “HCV NS3 1406-1415 epitope peptide … (Lp5)”, the IC50 in test [1] was 5 nM.

Regarding phytohemmaglutinin [PHA], the “response in positive control” value with PBMC is recorded as “uniformly positive”.

B1: Melan-A epitope (L26–35): heteroclitic HLA-A0201-restricted Melan-A epitope (peptide, UniProt Q16655 1-118, looked up, variant A27L)
Melanoma antigen recognized …: MPREDAHFIYGYPKKGHGHSYTTAEELAGIGILTVILGVLLLIGCWYCRRRNGYRALMDKSLHVGTQCALTRRCPQEGFDHRDSKVSLQEKNCEPVVPNAPPAYEKLSAEQSPPPYSP
modifications: epitope 26-35
Turning to B1, in test [2], the “frequency of T cells recognizing the epitope” value is recorded as “relatively frequent”.
